# Experimental data published in patent US20150299708, “CD133 APTAMERS FOR DETECTION OF CANCER STEM CELLS” (Deakin University, published 2015).
# T1: CD133 (prominin-1) (Homo sapiens, UniProt O43490 O43490:20-865)
# T1 sequence: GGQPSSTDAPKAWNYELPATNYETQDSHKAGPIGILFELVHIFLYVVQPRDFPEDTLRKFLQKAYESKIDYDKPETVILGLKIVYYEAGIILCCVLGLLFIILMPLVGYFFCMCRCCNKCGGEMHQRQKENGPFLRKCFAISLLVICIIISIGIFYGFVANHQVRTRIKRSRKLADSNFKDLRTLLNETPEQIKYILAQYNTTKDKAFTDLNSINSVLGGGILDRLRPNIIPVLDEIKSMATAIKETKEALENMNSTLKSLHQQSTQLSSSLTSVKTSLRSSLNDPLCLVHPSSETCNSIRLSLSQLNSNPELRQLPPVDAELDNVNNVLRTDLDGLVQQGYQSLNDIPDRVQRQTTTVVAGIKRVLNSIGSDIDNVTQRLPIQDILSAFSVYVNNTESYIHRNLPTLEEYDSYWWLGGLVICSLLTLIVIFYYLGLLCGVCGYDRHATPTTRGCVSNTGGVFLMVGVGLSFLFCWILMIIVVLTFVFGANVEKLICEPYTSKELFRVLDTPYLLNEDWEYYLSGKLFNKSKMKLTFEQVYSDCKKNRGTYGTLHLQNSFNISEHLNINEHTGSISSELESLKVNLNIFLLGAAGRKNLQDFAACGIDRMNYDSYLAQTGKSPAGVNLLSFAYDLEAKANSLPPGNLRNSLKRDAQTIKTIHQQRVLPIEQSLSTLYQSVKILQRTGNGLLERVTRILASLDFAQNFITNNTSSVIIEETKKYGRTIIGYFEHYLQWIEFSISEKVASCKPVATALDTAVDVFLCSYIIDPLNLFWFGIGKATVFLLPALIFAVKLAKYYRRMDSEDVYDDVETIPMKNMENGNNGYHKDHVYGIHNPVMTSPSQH
# Key:
# [1] = test system: CD133-negative cell surface (HEK293T or T98G; no CD133) (Homo sapiens); assay: flow; details: 2'-F pyrimidines, 3'-inverted dT, 37 C
# CD133 (prominin-1) [2] = target: T1, CD133 (prominin-1); assay: flow; Hep3B cells; 37 C 30 min, DPBS + MgCl2; details: tags: endogenous CD133 on CD133-positive HT-29 or Hep3B cells (ATCC); label: 5'-DY647
# Description: (§1) CCCTCCTACATAGGGAGGAACGAGTTACTATAG -3′, and antisense oligonucleotide, 5′-CTATAGTAACTCGTTCCTCCCTATGTAGGAGGGTGGGTTGAGCGTTTATTCTTGTCTC -3′; CD133-1-2 (2nd truncation) was derived from a sense oligonucleotide: 5′-TAATACGACTCACTATAGCTCAACCCACCCTCCTACATAGGGAGGAACGAGT-3′and an antisense oligonucleotide, 5′-ACTCGTTCCTCCCTATGTAGGAGGGTGGGTTGAGC -3′; CD133-1-2-1 (3rd Truncation) was derived from a sense oligonucleotide, 5′-TAATACGACTCACTATACCACCCTCCTACATAGGGTGG-3′ and an antisense oligonucleotide, 5′-CCACCCTATGTAGGAGGGTGG-3′; and CD133-1-2-2 (4th Truncation) was derived from a sense oligonucleotide, TAATACGACTCACTATACCCTCCTACATAGGG-3′ and an antisense oligonucleotide, 5′-CCC TAT GTA GGA GGG-3′. CD133-2-1 (1st Truncation) was derived from a sense oligonucleotide 5′-TAATACGACTCACTATACAGAACGTATACTATTCTG-3′ and an antisense oligonucleotide, 5′-CAG AAT AGT ATA CGT TCT G-3′ (T7 RNA promoter sequence is underlined). […] The binding affinities of these two aptamers and a negative control aptamer was determined using CD133 positive (HT-29 and Hep3B) and CD133 negative cell lines (T98G and HEK293T). […]
# CD133 (prominin-1) [3] = target: T1, CD133 (prominin-1); assay: flow; HT-29 cells; 37 C 30 min, DPBS + MgCl2, tRNA, salmon sperm DNA; details: tags: endogenous CD133 on CD133-positive HT-29 or Hep3B cells (ATCC); label: 5'-DY647
# Description: as §1
# CD133 (prominin-1) [4] = target: T1, CD133 (prominin-1); assay: flow; HT-29 cells; 37 C 30 min, DPBS + MgCl2; details: tags: endogenous CD133 on CD133-positive HT-29 or Hep3B cells (ATCC); label: 5'-DY647
# Description: as §1
Molecule,Kd ([1]; CD133-negative HEK293T cells),Kd ([1]; CD133-negative T98G cells),Kd (CD133 (prominin-1) [2]),Kd (CD133 (prominin-1) [3]),Kd (CD133 (prominin-1) [4])
CAGAACGUAUACUAUUCUG [CD133-2-1],1740 µM,4.76 µM,,,
CCCUCCUACAUAGGG [CD133-1-2-2],120 µM,275 µM,,,
"CCCUCCUACAUAGGG (ssRNA, 2'-F pyrimidines; 3'-inverted dT) [CD133-1-2-2]",,,0.032 µM,0.082 µM,
"CAGAACGUAUACUAUUCUG (ssRNA, 2'-F pyrimidines; 3'-inverted dT) [CD133-2-1]",,,0.052 µM,,0.145 µM
